Publication PMC4140852 (PLoS Pathogens, 2014)

B1: rAPRc_(99–231), intermediate of activation of RC1339/APRc (Aspartic Protease from Rickettsia conorii) soluble catalytic domain, C-terminal His-tag (domain or fragment)
chain: SALIPSYKWSTEVGEIIIARNRDGHFYINAFVNNVKIKFMVDTGASDIALTKEDAQKLGFDLTKLKYTRTYLTANGENKAAPITLNSVVIGKEFKNIKGHVGLGDLDISLLGMSLLERFKGFRIDKDLLILNY
notes: also called rAPRc99–231-His; APRc_(99–231)His; not shown: His6, C-terminal, kept
B2: rAPRc_(105–231), activation product derived from rAPRc_(99–231) by auto-processing (enzyme)
chain: YKWSTEVGEIIIARNRDGHFYINAFVNNVKIKFMVDTGASDIALTKEDAQKLGFDLTKLKYTRTYLTANGENKAAPITLNSVVIGKEFKNIKGHVGLGDLDISLLGMSLLERFKGFRIDKDLLILNY

Target: the molecule itself
Experiment: cross-linking

Protein	stoichiometry N
B1	2
B2	2
